Experiment [1] addresses T1, binding of eIF4E to eIF4G (Homo sapiens, UniProt P06730).
T1 construct: endogenous in cells; host or cells: OVCAR-3 cell lysate
The experiment in a line: Immunoprecipitation with eIF4E antibody and Western blot with eIF4G antibody, OVCAR-3 cell lysate incubated with peptide. Particulars: peptide 3 micromoles per liter, 250 micrograms OVCAR-3 cell lysate. Here is the method: FIGS. 1A-1G. 4EBP peptides bind eIF4E and inhibit binding of eIF4E to eIF4G. (FIG. 1A) Sequences of peptides comprising residues 49 to 68 of 4EBP1 and 4EBP2. (FIG. 1B) Biotinylated peptides (3 micromoles per liter) were incubated with 250 micrograms of OVCAR-3 cell lysate. Peptides were pulled-down using streptavidin-agarose. Precipitates (P) and supernatants (S) were analyzed by Western blot using eIF4E antibody. In (FIG. 1C), immunoprecipitation was performed using eIF4E antibody, and Western blot performed using eIF4G antibody. (FIG. 1D) Sequences of wild-type and mutant 4EBP peptides fused to TAT (mutant residues are highlighted). (FIG. 1E) OVCAR-3 cells were treated with biotinylated peptides (3 micromoles per liter, final concentration) for 16 hours. Internalized peptides were detected by staining fixed cells with Texas Red-conjugated streptavidin. Nuclei were visualized by staining with 4′,6-Diamidino-2-Phenylindole (DAPI). (FIGS. 1F and 1G) OVCAR-3 cell lysates were incubated with peptides as described for FIG. 1B. In (FIG. 1F), immunoprecipitation was performed using streptavidin-agarose and Western blot performed using eIF4E antibody. In (FIG. 1G), immunoprecipitation was performed using eIF4E antibody, and Western blot performed using eIF4G antibody.
FIGS. 3A-3H. Uptake, binding and inhibitory effects of [DLys6]GnRH-4EBP fusion peptides. (FIG. 3A) Sequences of [DLys6]GnRH, and wild-type and mutant 4EBP1 peptides fused to the agonist. (FIG. 3B) Western blot of GnRH-RI levels in OVCAR-3, ES-2, MDA-MB-231, BJ, HUVEC and SKOV3 cells. (FIG. 3C) Detection of biotinylated peptides in OVCAR-3 and SKOV3 by Texas Red-conjugated streptavidin at 16 hours after peptide addition (3 micromoles per liter). In (FIGS. 3D and 3E), biotinylated peptides were incubated with OVCAR-3 cell lysate as described in FIG. 1. In (FIG. 3D), peptide was pulled down using streptavidin-agarose. Precipitates (P) and supernatants (S) were analyzed by Western blot using eIF4E antibody. In (FIG. 3E), immunoprecipitation was performed using eIF4E antibody, and Western blot performed using eIF4G antibody. (FIG. 3F) R-Luc and F-Luc activities were assayed in ES-2-DualLuc cells at 6 hours after addition of the indicated concentrations of peptides, and are expressed relative to the respective luciferase activities in cells incubated without peptide. Shown are results of triplicate assays performed independently two times, and the statistical significance of differences in relative R-Luc and F-Luc activities in cells treated with peptide at a concentration of 10 micromoles per liter (FIG. 3G) Cells of GnRH-RI-positive and -negative lines were treated with the indicated concentrations of peptides. […]
Background: Immunoblotting shows a protein as a band on a membrane.

Experiment [2] concerns the target T2, binding of eIF4E to eIF4G in SKOV3+GnRH-RI cells (Homo sapiens, UniProt P06730).
T2 construct: endogenous in cells; host or cells: SKOV3+GnRH-RI cells
The experiment is described as follows: eIF4E immunoprecipitation / eIF4G Western blot of lysates of peptide-treated cells. In kind it is cell-based. Particulars: 10 micromoles per liter, 24 hours. How it is done: FIGS. 8A-8D. Effect of [DLys6] GnRH-4EBP1 peptide in SKOV3 cells stably expressing GnRH-RI. (FIG. 8A) Western blot analysis of GnRH-RI in parental SKOV3 cells and SKOV3 cells transfected with GnRH-RI. In (FIG. 8B), SKOV3+GnRH-RI cells were treated with biotinylated peptides at a final concentration of 10 micromoles per liter or incubated without peptide. At 24 hours after treatment, lysates were prepared from cells. Peptide was pulled-down using streptavidin-agarose. Precipitates and supernatants were analyzed by Western blot using eIF4E antibody. (FIG. 8C) parental SKOV3, SKOV3+GnRH-RI and ES-2 cells were treated with the indicated peptides (10 micromoles per liter) or incubated without peptide. At 24 hours after treatment, lysates were prepared from cells. Immunoprecipitation was performed using eIF4E antibody, and Western blot of precipitates was performed using eIF4G antibody. Western blot of whole cell lysates of treated cells was performed using antibodies to eIF4G, eIF4E and actin. (FIG. 8D) TUNEL-staining of parental SKOV3 and SKOV3+GnRH-RI cells at 3 days following treatment with peptide at a final concentration of 30 micromoles per liter.
Immunoprecipitation (IP) and Western blotting. Biotinylated peptides were incubated with 250 micrograms of cell lysate at a final concentration of 3 micromoles per liter for 6 hours at 4° C. […]

Square brackets hold non-standard residues; d marks the D form. Ends that are not written are not given here.

These results are taken from patent US20110319338A1, “PEPTIDES THAT BIND EUKARYOTIC TRANSLATION INITIATION FACTOR 4E” (The Board of Regents of the University of Texas System, priority 2008, published 2011).

T2 sequence (P06730 2-217 limits assumed): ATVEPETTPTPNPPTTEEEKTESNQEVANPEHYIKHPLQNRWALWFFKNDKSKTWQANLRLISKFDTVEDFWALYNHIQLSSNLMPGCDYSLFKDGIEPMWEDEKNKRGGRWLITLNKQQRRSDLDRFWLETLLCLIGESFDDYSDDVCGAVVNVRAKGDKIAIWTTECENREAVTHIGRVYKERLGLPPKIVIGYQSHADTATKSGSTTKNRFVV
T1 sequence (P06730 2-217 limits assumed): as above

As to “[DLys6]GnRH: GnRH agonist with a D-amino acid substitution at position 6; GnRH-RI-targeting moiety (QHWSY[dK]LRPG; not fully specified (residue 1, C-terminus); ends and bridges not checked)”, in experiment [1], the “inhibition of eIF4E binding to eIF4G” value is “not inhibited”. The “binding of eIF4E to eIF4G in treated cells” value in experiment [2] is “not inhibited”.
